The text below walks through data of patent US7923535B2, “Tryptophan as a functional replacement for ADP-ribose-arginine in recombinant proteins” (The United States of America as represented by the …, priority 2002, dated 2011).

The labels stand for the following.
T1: ART2b(R204K) (Rattus norvegicus, UniProt P20974, R204K)
T1 construct: made in house; host or cells: rat mammary adenocarcinoma (NMU) cells, pMAMneo vector, dexamethasone-induced; released with PI-PLC
T1 sequence (P20974 21-246 R204K limits assumed): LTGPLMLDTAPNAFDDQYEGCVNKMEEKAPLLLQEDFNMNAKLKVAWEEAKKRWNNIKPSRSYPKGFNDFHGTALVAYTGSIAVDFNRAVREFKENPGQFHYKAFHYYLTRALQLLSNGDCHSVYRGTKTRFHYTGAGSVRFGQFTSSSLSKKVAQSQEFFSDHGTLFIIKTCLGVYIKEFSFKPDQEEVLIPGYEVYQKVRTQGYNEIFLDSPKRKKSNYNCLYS

B1: ART2b(R204K): rat ART2b with arginine-to-lysine substitution at position 204 (protein)
chain: T1 sequence (P20974 21-246 R204K limits assumed)
B2: ART2b: rat ADP-ribosyltransferase ART2b (RT6.2), SEQ ID NO:12, wild type (protein, listed as Rattus norvegicus)
chain: MPSNICKFFLTWWLIQQVTGLTGPLMLDTAPNAFDDQYEGCVNKMEEKAPLLLQEDFNMNAKLKVAWEEAKKRWNNIKPSRSYPKGFNDFHGTALVAYTGSIAVDFNRAVREFKENPGQFHYKAFHYYLTRALQLLSNGDCHSVYRGTKTRFHYTGAGSVRFGQFTSSSLSKKVAQSQEFFSDHGTLFIIKTCLGVYIKEFSFRPDQEEVLIPGYEVYQKVRTQGYNEIFLDSPKRKKSNYNCLYSSAGARESCVSLFLVVLPSLLVQLLCLAEP
B3: ART2b(R204W): rat ART2b with arginine-to-tryptophan substitution at position 204 (protein, UniProt P20974 21-246, looked up, variant R204W)
T-cell …: T1 sequence (P20974 21-246 R204K limits assumed) with K184W
B4: ART2a: rat ADP-ribosyltransferase ART2a (RT6.1), SEQ ID NO:11, wild type (protein, listed as Rattus norvegicus)
chain: MPSNICKFFLTWWLIQQVTGLTGPLMLDTAPNAFDDQYEGCVNKMEEKAPLLLKEDFNKSEKLKVAWEEAKKRWNNIKPSMSYPKGFNDFHGTALVAYTGSIGVDFNRAVREFKENPGQFHYKAFHYYLTRALQLLSNGDCHSVYRGTKTRFHYTGAGSVRFGQFTSSSLSKTVAQSPEFFSDDGTLFIIKTCLGVYIKEFSFYPDQEEVLIPGYEVYQKVRTQGYNEIFLDSPKRKKSNYNCLYSSAGTRESCVSLFLVVLTSLLVQLLCLAEP
B5: ART2a(59MNA61,Y204R): rat ART2a with K59M, S60N, E61A and Y204R substitutions, non-glycosylated (protein, UniProt P17982 21-246, looked up, variant K59M S60N E61A Y204R)
T-cell …: T1 sequence (P20974 21-246 R204K limits assumed) with Q34K, R61M, A83G, K153T, Q158P, H164D, K184R
B6: ART2a(M81R,Y204R): rat ART2a with M81R and Y204R substitutions (protein, UniProt P17982 21-246, looked up, variant M81R Y204R)
T-cell …: T1 sequence (P20974 21-246 R204K limits assumed) with Q34K, M39K, N40S, A41E, A83G, K153T, Q158P, H164D, K184R
B7: ART2a(Y204R): rat ART2a with tyrosine-to-arginine substitution at position 204 (protein)
chain: T1 sequence (P20974 21-246 R204K limits assumed) with Q34K, M39K, N40S, A41E, R61M, A83G, K153T, Q158P, H164D, K184R
B8: ART2b(R81K): rat ART2b with arginine-to-lysine substitution at position 81 (protein)
chain: T1 sequence (P20974 21-246 R204K limits assumed) with R61K, K184R
B9: ART2a(M81R): rat ART2a with methionine-to-arginine substitution at position 81 (protein)
chain: T1 sequence (P20974 21-246 R204K limits assumed) with Q34K, M39K, N40S, A41E, A83G, K153T, Q158P, H164D, K184Y

Positions count from the first letter of the chain named. In names and notes the source's numbering stands. Entries after “also recorded” stand apart in the source; their conditions may differ.

The first data set concerns the target T1, ART2b(R204K). Kind of data set: Incubation of wildtype ART2b with ART2b(R204K) and millimolar NAD (intermolecular modification). The data set is classed as biochemical. To be noted: millimolar NAD, with or without ART2b(R204K). As for the experimental part: The blots contain samples from cells expressing wild type ART2b (lanes 1), ART2b(R204K) (lanes 2), or a mixtures of samples containing ART2b and ART2b(R204K) (lanes 3). Samples were incubated with or without 10 μM [^32P]NAD followed by either TCA precipitation or further incubation with 5 mM NAD. The radiolabeled wild type ART2b and ART2b(R204K) proteins were combined and then incubated with or without 5 mM NAD.
To investigate whether ART2b(R204K) could be modified, wildtype ART2b was incubated with its mutant ART2b(R204K) and millimolar NAD (FIG. 5).
For the molecule B1, the “modification (mobility on SDS-PAGE) after incubation of wildtype ART2b with ART2b(R204K) and NAD” value is reported as “not modified by wildtype ART2b in an intermolecular reaction”.
As to B2, the “modification (mobility on SDS-PAGE) after incubation of wildtype ART2b with ART2b(R204K) and NAD” value was “exhibited decreasing mobility on SDS-PAGE”.

System in another data set: not listed separately
Kind of data set: NAD glycohydrolase (NADase) assay. The data set is classed as biochemical, rat. As to conditions: PI-PLC released recombinant protein from NMU cells; 0.1 mM [carbonyl-^14C]NAD, 1 hour at 30° C. On the procedure:
(§1) NADase activity was measured in DPBS with 0.1 mM [carbonyl-^14C]NAD (8×10^4 cpm) for 1 hour at 30° C., (total volume=150,u). Samples (50,u) were applied to AG1-X2 (BIO-RAD, Hercules, Calif.) columns (0.4×4 cm), equilibrated and eluted with water for liquid scintillation counting as described (Moss et al., Proc Natl Acad Sci U S A 73(12):4424-7, 1976). Transferase activity was assayed similarly with or without 20 mM agmatine as ADP-ribose acceptor and with [adenine-^14C]NAD substituted for [carbonyl-^14C]NAD.
Turning to B3, the NADase activity entry is on record as “greater than that of wild-type ART2b”.
Take B2: the NADase activity entry is “have NADase activity”.
For B4, the NADase activity entry is recorded as “have NADase activity”.

The same data set, now with this note: change over the course of the reaction.
Take B1: the “NADase activity during the course of the reaction (rate of NAD hydrolysis)” value is reported as “did not change”.
Same read-out and setting: the result for B3 reads “decreased during the course of the reaction”; that for B2, “decreased during the course of the reaction”.

System in the next data set: not listed separately
Kind of data set: ADP-ribosyltransferase assay with agmatine as ADP-ribose acceptor. The class given is biochemical, rat. To be noted: 20 mM agmatine as ADP-ribose acceptor. As for the experimental part: as §1
With B3, the “transfer of ADP-ribose to agmatine” value is on record as “unable to transfer ADP-ribose to agmatine”.
With B2, the “transfer of ADP-ribose to agmatine” value was “unable to transfer ADP-ribose to agmatine”.

System in a further data set: not listed separately
Put plainly: Auto-ADP-ribosylation of PI-PLC released recombinant ART2 proteins with [^32P]NAD, SDS-PAGE. The class given is biochemical, rat. To be noted: 10 μM [^32P]NAD, followed by 5 mM unlabeled NAD. As for the experimental part:
To investigate the structural basis for these differences in catalytic function, site-specific mutagenesis was employed with synthesis of recombinant ART2b and ART2a proteins in rat adenocarcinoma cells (NMU) under a dexamethasone-sensitive promoter. After induction and expression of the GPI-anchored proteins, cells were incubated with PI-PLC to cleave the GPI anchor and then [^32P]-NAD was added to the medium to promote auto-ADP-ribosylation of the released protein (FIG. 2).
To assess the ability of ART2 proteins, ART2a and ART2b, to be auto-ADP-ribosylated at multiple sites, proteins were incubated first with 10 μM [^32P]NAD, followed by addition of 5 mM unlabeled NAD and further incubation (FIG. 4). […] It is unlikely that auto-modification was due to non-enzymatic addition of [^32P]ADP-ribose since reactions were carried out in the presence of 1 mM ADP-ribose, or due to NAD binding, since the radiolabel was not displaced by incubation with 5 mM NAD.
B1: the “auto-ADP-ribosylation at multiple sites (decrease in mobility on SDS-PAGE)” value was “not modified by incubation with NAD”.
The same measure, in the same setting: the value for B5 was “exhibited auto-ADP-ribosylation following incubation with 5 mM NAD”; that for B6 was “exhibited auto-ADP-ribosylation following incubation with 5 mM NAD”; that for B7 was “exhibited auto-ADP-ribosylation following incubation with 5 mM NAD”.
B3: the “auto-ADP-ribosylation at multiple sites (decrease in mobility on SDS-PAGE)” value is given as “weak auto-ADP-ribosylation activity at multiple sites”.
On the same count and under the same terms, the value for B8 was “exhibited auto-ADP-ribosylation following incubation with 5 mM NAD”.
On the same count and under the same terms, the value for B2 was “exhibited auto-ADP-ribosylation following incubation with 5 mM NAD”.

Staying with this data set, now noted: [^32P]NAD added to PI-PLC released protein; SDS-PAGE.
Take B1: the auto-ADP-ribosylation entry is “abolished both the primary and secondary modifications”.
For B9, the auto-ADP-ribosylation result is recorded as “had no effect”.
On the same count and under the same terms, the result for B6 reads “auto-ADP-ribosylation of both glycosylated 33 kDa and nonglycosylated 29 kDa forms was observed”; that for B7, “auto-ADP-ribosylation of both glycosylated 33 kDa and nonglycosylated 29 kDa forms was observed”.
As for B3, the auto-ADP-ribosylation entry is given as “auto-ADP-ribosylation at non-arginine sites”.
In the case of B8, the auto-ADP-ribosylation entry is reported as “no effect on auto-ADP-ribosylation”.
The same measure, in the same setting: the result for B2 reads “significantly auto-ADP-ribosylated; also recorded: Multiple species of auto-ADP-ribosylated”; that for B4, “not significantly auto-modified”.
